In test [1] the target is Type I gelatin (heat-denatured acid-soluble type I atelocollagen from bovine hides) (bovine). Kind of test: ELISA. For orientation: ELISA stands for enzyme-linked immunosorbent assay.
The target of test [2] is V-(GXY)26 (Streptococcus pyogenes). Kind of test: MST; NanoTemper Monolith NT.115, Protein Labeling Kit RED-NHS; 50 mM HEPES pH 7.5, 150 mM NaCl, 10 mM CaCl2, 10 µM ZnCl2, 0.05% Tween-20, 3 mM NaN3; without ß-mercaptoethanol (nonreducing) (Fig. 5F).
The target is the same in test [3]. In words: MST; NanoTemper Monolith NT.115, Protein Labeling Kit RED-NHS; 50 mM HEPES pH 7.5, 150 mM NaCl, 10 mM CaCl2, 10 µM ZnCl2, 0.05% Tween-20, 3 mM NaN3; with 1 mM ß-mercaptoethanol (reducing) (Fig. 5F).
For test [4], the target named is Acid-soluble type I atelocollagen from bovine hides (bovine) (UniProt P02453). Kind of test: ELISA.
Chain of Acid-soluble type I atelocollagen from bovine hides (bovine) (P02453 162-1217, chain 1 of 2): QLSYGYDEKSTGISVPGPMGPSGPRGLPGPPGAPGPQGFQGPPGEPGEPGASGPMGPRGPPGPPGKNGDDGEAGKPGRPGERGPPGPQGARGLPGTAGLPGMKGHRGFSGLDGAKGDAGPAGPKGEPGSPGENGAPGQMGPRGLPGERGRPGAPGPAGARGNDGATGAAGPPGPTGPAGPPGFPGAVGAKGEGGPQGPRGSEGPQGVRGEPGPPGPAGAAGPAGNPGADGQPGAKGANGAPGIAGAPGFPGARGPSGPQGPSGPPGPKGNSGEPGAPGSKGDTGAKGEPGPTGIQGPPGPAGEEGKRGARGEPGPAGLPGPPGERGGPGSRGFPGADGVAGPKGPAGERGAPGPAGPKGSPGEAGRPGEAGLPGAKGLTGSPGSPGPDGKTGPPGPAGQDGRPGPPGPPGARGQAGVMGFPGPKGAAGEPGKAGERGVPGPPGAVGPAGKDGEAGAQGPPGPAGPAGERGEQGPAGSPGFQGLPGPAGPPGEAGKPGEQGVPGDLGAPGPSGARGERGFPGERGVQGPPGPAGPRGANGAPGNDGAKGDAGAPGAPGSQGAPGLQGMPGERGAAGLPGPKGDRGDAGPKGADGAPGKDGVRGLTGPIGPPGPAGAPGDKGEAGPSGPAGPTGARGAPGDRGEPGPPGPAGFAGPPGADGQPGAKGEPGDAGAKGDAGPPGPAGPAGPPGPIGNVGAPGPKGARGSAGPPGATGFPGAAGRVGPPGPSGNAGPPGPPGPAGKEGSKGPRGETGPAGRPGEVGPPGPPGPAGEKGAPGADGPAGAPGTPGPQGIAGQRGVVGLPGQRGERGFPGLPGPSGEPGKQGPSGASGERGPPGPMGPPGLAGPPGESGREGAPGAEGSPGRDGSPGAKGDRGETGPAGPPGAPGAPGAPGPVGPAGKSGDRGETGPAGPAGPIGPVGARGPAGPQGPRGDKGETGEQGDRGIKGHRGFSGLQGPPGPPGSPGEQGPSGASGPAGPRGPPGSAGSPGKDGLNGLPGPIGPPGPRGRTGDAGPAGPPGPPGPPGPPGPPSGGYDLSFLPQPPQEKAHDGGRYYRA
Chain of Acid-soluble type I atelocollagen from bovine hides (bovine) (P02465 80-1117, chain 2 of 2, further chain): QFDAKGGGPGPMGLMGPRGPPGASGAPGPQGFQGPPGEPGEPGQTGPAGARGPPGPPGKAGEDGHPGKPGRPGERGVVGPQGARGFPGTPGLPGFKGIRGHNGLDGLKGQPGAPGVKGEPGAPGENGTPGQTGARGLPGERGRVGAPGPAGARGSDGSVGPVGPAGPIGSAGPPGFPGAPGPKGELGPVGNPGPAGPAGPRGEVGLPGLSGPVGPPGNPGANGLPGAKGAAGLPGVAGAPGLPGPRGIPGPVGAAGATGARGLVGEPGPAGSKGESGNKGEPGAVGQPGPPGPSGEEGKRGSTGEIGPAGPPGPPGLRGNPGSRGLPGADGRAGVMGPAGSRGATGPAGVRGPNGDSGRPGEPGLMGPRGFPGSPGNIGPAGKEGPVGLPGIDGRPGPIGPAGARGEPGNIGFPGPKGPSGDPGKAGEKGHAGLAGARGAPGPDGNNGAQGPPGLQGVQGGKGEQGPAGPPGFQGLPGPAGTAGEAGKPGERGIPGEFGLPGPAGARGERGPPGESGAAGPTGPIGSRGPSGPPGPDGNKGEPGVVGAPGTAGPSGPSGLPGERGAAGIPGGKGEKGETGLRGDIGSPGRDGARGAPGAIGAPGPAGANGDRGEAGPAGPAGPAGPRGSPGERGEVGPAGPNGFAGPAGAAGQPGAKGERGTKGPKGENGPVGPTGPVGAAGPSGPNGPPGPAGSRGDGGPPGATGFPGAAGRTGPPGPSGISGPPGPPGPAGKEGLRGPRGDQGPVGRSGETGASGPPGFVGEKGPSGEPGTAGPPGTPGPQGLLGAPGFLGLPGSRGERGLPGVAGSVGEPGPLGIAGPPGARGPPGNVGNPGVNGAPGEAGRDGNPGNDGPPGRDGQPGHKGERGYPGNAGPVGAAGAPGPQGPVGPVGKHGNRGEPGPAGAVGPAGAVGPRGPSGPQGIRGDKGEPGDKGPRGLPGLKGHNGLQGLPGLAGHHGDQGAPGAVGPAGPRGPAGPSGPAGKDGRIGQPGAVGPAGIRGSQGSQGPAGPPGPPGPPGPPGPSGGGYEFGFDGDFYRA
Test [5] concerns the target type I gelatin (heat-denatured acid-soluble type I atelocollagen from bovine hides) (bovine) (UniProt P02453). In words: ELISA.
Test [6] addresses Type I gelatin (heat-denatured acid-soluble type I atelocollagen from bovine hides) (bovine). In words: ELISA; indirect ELISA; gelatin immobilised, ColQ1-CU G472V variants in solution; 37 °C (Fig. 4B).
Test [7] deals with Acid-soluble type I atelocollagen from bovine hides (bovine) (UniProt P02453). Kind of test: ELISA; indirect ELISA; soluble collagen immobilised, ColQ1-CU G472V variants in solution; 25 °C to preserve the triple-helical fold (Fig. 4C).
The target in test [8] is Type I gelatin (heat-denatured acid-soluble type I atelocollagen from bovine hides). In words: indirect ELISA. As to conditions: 37 °C; parent: est. 1.5 µM; read off a plot.
The target of test [9] is V-domain of Scl2.3 (Streptococcus pyogenes). Kind of test: SDS-PAGE (SDS-stable oligomer); 12% nonreducing SDS-PAGE of 10 µM V-(GXY)26 incubated with or without ColG-CU at 25 °C (Fig. 2C).
For test [10], the target named is Acid-soluble type I atelocollagen from bovine hides (bovine, UniProt P02453 162-1217; P02465 80-1117). In words: ELISA. As to conditions: both partners purified.
Chain of Acid-soluble type I atelocollagen from bovine hides (P02453 162-1217, chain 1 of 2): as the sequence (P02453 162-1217, chain 1 of 2) above
Chain of Acid-soluble type I atelocollagen from bovine hides (P02465 80-1117, chain 2 of 2): as the sequence (P02465 80-1117, chain 2 of 2, further chain) above
For test [11], the target named is T1, soluble type I collagen (acid-soluble type I atelocollagen from bovine hides) (bovine, UniProt P02453 162-1217; P02465 80-1117).
T1 construct: also called soluble collagen; tropocollagen
T1 sequence (P02453 162-1217, chain 1 of 2): as the sequence (P02453 162-1217, chain 1 of 2) above
T1 sequence (P02465 80-1117, chain 2 of 2): as the sequence (P02465 80-1117, chain 2 of 2, further chain) above
In words: ELISA. As to conditions: both partners purified.

A value given as a limit tells only on which side of the number the result lay.

Chain of type I gelatin (heat-denatured acid-soluble type I atelocollagen from bovine hides) (bovine) (P02453 23-1217, chain 1 of 2): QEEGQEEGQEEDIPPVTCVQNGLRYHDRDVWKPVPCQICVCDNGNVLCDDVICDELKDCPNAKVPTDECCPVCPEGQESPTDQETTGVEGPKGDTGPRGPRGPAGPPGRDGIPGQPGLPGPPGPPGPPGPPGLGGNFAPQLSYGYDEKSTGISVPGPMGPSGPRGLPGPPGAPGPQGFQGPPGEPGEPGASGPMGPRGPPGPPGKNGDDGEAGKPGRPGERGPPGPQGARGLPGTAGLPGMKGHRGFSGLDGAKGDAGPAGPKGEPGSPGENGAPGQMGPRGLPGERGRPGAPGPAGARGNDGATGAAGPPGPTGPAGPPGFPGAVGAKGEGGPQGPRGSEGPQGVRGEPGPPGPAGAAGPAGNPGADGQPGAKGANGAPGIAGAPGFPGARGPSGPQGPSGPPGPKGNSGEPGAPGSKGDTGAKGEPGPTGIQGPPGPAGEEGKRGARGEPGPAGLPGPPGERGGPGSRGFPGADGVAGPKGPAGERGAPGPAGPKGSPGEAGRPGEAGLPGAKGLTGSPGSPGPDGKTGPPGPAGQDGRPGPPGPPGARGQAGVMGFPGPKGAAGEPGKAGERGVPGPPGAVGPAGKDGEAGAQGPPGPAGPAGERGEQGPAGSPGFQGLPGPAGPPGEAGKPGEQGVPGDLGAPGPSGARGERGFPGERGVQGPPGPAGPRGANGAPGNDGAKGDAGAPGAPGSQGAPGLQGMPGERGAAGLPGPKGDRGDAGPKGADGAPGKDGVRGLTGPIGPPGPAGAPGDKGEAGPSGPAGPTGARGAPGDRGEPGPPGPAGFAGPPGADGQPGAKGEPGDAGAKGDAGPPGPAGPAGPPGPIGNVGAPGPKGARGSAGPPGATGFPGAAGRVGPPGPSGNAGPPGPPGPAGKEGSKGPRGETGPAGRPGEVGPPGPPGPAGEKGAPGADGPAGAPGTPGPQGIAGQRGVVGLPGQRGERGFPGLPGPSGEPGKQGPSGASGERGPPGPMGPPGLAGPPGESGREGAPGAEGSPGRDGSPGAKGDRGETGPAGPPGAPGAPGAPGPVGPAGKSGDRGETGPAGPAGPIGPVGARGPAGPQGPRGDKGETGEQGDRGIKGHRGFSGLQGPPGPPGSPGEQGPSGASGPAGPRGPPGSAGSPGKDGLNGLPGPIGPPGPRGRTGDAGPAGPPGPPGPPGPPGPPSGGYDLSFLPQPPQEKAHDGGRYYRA
Chain of type I gelatin (heat-denatured acid-soluble type I atelocollagen from bovine hides) (bovine) (P02465 80-1117, chain 2 of 2, further chain): as the sequence (P02465 80-1117, chain 2 of 2, further chain) above

“ColG-AD (Y119-S392) (from UniProt Q9X721 119-392) (domain or fragment)”: the Kd (in general, the equilibrium constant for the complex coming apart) in [1] is 0.11 µM.

“ColG-CBD2 (N1004-K1118) (from UniProt Q9X721 1004-1118) (domain or fragment)” yielded a Kd in [1] of 253 µM.

On to “ColG-CU CL4-G494V, crosslinked (domain or fragment)”, for which the Kd in [2] is 36 µM.

“ColG-CU CL4-G494V, noncrosslinked (reduced) (domain or fragment)” registered a Kd in [3] of 2.9 µM.

With “ColG-CU E524A (Y119-G790) (domain or fragment)”, the Kd in test [1] turned out to be 0.08 µM; in test [4] it was 0.37 µM.

Take “ColG-FL E524A (Y119-K1118) (from UniProt Q9X721 119-1118) (enzyme)”: the results for the Kd in test [1] and in test [4] were 0.031 µM and 0.024 µM, respectively.

For “ColG-PD E524A (D398-G790) (domain or fragment)”, the results for the dissociation constant Kd in test [1] and in test [4] were 243 µM and 497 µM, respectively.

The molecule “ColG-PKD (I799-N880) (from UniProt Q9X721 799-880) (domain or fragment)” yielded a Kd in test [5] above 1000 µM.

As to ColQ1-CU G472V (domain or fragment), the Kd in test [6] and in test [7] was 1.6 µM each time.

Regarding ColQ1-CU G472V E166A, in test [8], the Kd turned out to be 4.8 µM.

As for ColQ1-CU G472V F123A, the equilibrium dissociation constant (Kd) in test [8] amounted to 1.5 µM.

As for ColQ1-CU G472V F176A, the Kd in [8] was determined as 1.1 µM.

In the case of “ColQ1-CU G472V F176A (domain or fragment)”, the fold increase in affinity against ColQ1-CU G472V in test [7] stood at 20 fold.

With “ColQ1-CU G472V N226A (domain or fragment)”, the Kd in test [6] and in test [7] was above 150 µM throughout.

Turning to ColQ1-CU G472V R169A, the Kd in test [8] turned out to be 2.7 µM.

Regarding “ColQ1-CU G472V R169A (domain or fragment)”, in test [7], the fold increase in affinity against ColQ1-CU G472V amounted to 9 fold.

Molecule “ColQ1-CU G472V Y173A (domain or fragment)” displayed a fold drop in binding affinity against ColQ1-CU G472V in test [6] of 15 fold.

For the molecule “ColQ1-CU G472V Y270A (domain or fragment)”, the fold increase in affinity against ColQ1-CU G472V in test [7] is 8 fold.

For the molecule V-domain of Scl2.3 (domain or fragment), the stoichiometry N (usually a count of units in the complex or per binding partner) in test [9] amounted to 3.

B1: ColG-CBD2 (N1004-K1118) (domain or fragment)
chain: NEKLKEKENNDSSDKATVIPNFNTTMQGSLLGDDSRDYYSFEVKEEGEVNIELDKKDEFGVTWTLHPESNINDRITYGQVDGNKVSNKVKLRPGKYYLLVYKYSGSGNYELRVNK
modifications: fluorescently labeled in the fibrillar collagen assay (dye not stated)
notes: source: E. coli Nico21 (DE3), purified
Regarding B1, the Kd in [10] is 14 ± 1 µM.

B2: ColG-AD (Y119-S392) (domain or fragment)
chain: YDFEYLNGLSYTELTNLIKNIKWNQINGLFNYSTGSQKFFGDKNRVQAIINALQESGRTYTANDMKGIETFTEVLRAGFYLGYYNDGLSYLNDRNFQDKCIPAMIAIQKNPNFKLGTAVQDEVITSLGKLIGNASANAEVVNNCVPVLKQFRENLNQYAPDYVKGTAVNELIKGIEFDFSGAAYEKDVKTMPWYGKIDPFINELKALGLYGNITSATEWASDVGIYYLSKFGLYSTNRNDIVQSLEKAVDMYKYGKIAFVAMERITWDYDGIGS
modifications: fluorescently labeled in the fibrillar collagen assay (dye not stated)
notes: as for B1
In turn, B2 showed a Kd in test [10] of 0.072 ± 0.009 µM.

B3: ColG-PKD (I799-N880) (domain or fragment)
chain: IAKVTGPSTGAVGRNIEFSGKDSKDEDGKIVSYDWDFGDGATSRGKNSVHAYKKAGTYNVTLKVTDDKGATATESFTIEIKN
notes: as for B1
In test [11], B3 gave a Kd above 1000 µM.

The values are drawn from publication PMC11032491, “A conserved strategy to attack collagen: The activator domain in bacterial collagenases unwinds triple-helical collagen” (Proceedings of the National Academy of Sciences of the …, 2024).
